# B1: PDCUBPC: chimeric PDGF-C carrying the CUB domain from PDGF-D and the hinge region and growth factor domain of PDGF-C (protein)
# chain: RDTSATPQSASIKALRNANLRRDESNHLTDLYRRDETIQVKGNGYVQSPRFPNSYPRNLLLTWRLHSQENTRIQLVFDNQFGLEEAENDICRYDFVEVEDISETSTIIRGRWCGHKEVPPRIKSRTNQIKITFKSDDYFVAKPGFKIYYSLLEDQFTEAVSPSVLPPSALPLDLLNNAITAFSTLEDLIRYLEPERWQLDLEDLYRPTWQLLGKAFVFGRKSRVVDLNLLTEEVRLYSCTPRNFSVSIREELKRTDTIFWPGCLLVKRCGGNCACCLHNCNECQCVPSKVTKKYHEVLQLRPKTGVRGLHKSLTDVALEHHEECDCVCRGSTGG
# B2: α2-anti-plasmin: specific plasmin inhibitor (#4030, American Diagnostica Inc.) (protein, UniProt P08697 40-491, looked up)
# Alpha-2-antiplasmin: NQEQVSPLTLLKLGNQEPGGQTALKSPPGVCSRDPTPEQTHRLARAMMAFTADLFSLVAQTSTCPNLILSPLSVALALSHLALGAQNHTLQRLQQVLHAGSGPCLPHLLSRLCQDLGPGAFRLAARMYLQKGFPIKEDFLEQSEQLFGAKPVSLTGKQEDDLANINQWVKEATEGKIQEFLSGLPEDTVLLLLNAIHFQGFWRNKFDPSLTQRDSFHLDEQFTVPVEMMQARTYPLRWFLLEQPEIQVAHFPFKNNMSFVVLVPTHFEWNVSQVLANLSWDTLHPPLVWERPTKVRLPKLYLKHQMDLVATLSQLGLQELFQAPDLRGISEQSLVVSGVQHQSTLELSEVGVEAAAATSIAMSRMSLSSFSVNRPFLFFIFEDTTGLPLFVGSVRNPNPSAPRELKEQQDSPGNKDFLQSLKGFPRGDKLFGPDLKLVPPMEEDYPQFGSPK
# Tests used:
# [1] = system: tPA; experiment: Cotransfection assay in COS-1 cells: PDGF-CC forms and mutants coexpressed with tPA; assay type: cell-based, human; details: COS-1 cotransfection with tPA, immunoblot; cleavage site mutant made from mouse PDGF-C cDNA
# Sequence of tPA (P00750 36-562): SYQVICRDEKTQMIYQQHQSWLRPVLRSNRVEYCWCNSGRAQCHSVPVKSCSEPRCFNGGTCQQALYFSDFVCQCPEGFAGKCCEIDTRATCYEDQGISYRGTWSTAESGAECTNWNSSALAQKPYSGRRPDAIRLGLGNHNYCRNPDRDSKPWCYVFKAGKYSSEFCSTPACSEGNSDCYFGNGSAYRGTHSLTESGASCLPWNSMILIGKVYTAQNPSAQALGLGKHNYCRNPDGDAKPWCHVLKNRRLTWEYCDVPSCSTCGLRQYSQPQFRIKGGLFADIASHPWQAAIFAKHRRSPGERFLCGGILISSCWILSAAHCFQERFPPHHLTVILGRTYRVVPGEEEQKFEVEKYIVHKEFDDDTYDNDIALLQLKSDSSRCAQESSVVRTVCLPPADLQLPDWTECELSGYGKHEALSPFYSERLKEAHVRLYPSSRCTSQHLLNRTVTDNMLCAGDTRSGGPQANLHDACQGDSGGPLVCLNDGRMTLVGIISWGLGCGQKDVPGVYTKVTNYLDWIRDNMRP
# Excerpt: The structural requirements for recognition of full-length PDGF-CC as a substrate for tPA were mapped by analysis of several mutated forms of PDGF-CC using the co-transfection assay. The mutants of PDGF-CC included a chimeric form of PDGF-C carrying the CUB domain from PDGF-D and the hinge region and growth factor domain of PDGF-C (mutant PDCUBPC), and several truncation mutants lacking the CUB domain and increasing parts of the hinge region (schematically illustratrated in FIG. 6A). All mutants were properly expressed in transfected COS-1 cells, formed disulfide-linked dimers (data not shown), and were efficiently secreted, except truncation mutant Δ190 that was expressed at a lower level in the conditioned medium (FIG. 6B).
# A conserved site of four amino acids containing three basic amino-acid residues (amino-acid residues -R-K-S-R-) was previously identified as a potential site for proteolytic activation of latent PDGF-CC (Li et al, 2000). […]
# To test the endogenous expression of PDGF-CC, subconfluent AG1523 cells and primary fibroblast cultures were cultured in serum-free DMEM overnight. […] In the case of the primary cultures, total protein concentration was measured and normalized (Bradford, 1976). […] PDGF-C and PDGF-D were detected by immunoblotting using affinity-purified polyclonal rabbit antibodies against PDGF-C (Li et al, 2000) and PDGF-D (Bergsten et al, 2001), respectively. […]
# [2] = target: T1, latent PDGF-CC (Homo sapiens, UniProt Q9NRA1); experiment: Cotransfection assay in COS-1 cells: protease plus full-length PDGF-C; assay type: cell-based; details: α2-anti-plasmin 10 ng-1 μg added to the cotransfection medium for 24 hours
# T1 construct: cotransfected with full-length PDGF-C (Li et al, 2000), full-length PDGF-D (Bergsten et al, 2001); expressed in transfected cells; host or cells: COS-1 cells
# T1 sequence (Q9NRA1 23-345): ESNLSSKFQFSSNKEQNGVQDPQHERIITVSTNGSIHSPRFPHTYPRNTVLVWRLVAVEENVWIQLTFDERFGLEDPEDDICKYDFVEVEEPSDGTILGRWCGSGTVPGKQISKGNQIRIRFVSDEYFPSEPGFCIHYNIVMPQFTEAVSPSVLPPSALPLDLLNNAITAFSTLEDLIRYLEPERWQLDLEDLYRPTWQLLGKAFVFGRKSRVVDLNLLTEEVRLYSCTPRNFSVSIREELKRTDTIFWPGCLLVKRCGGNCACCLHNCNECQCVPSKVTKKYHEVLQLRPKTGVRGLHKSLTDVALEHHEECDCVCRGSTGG
# Excerpt: A cotransfection assay was established to identify serine proteases able to cleave and activate latent PDGF-CC. Expression plasmids encoding the relevant enzymes and full-length PDGF-C were cotransfected into COS-1 cells, and aliquots of the conditioned media from the transfectants were subjected to SDS-PAGE and immunoblotting using antibodies to the growth factor domain of PDGF-C. […] As a specificity control, the ability of tPA and NT to use full-length PDGF-DD as the substrate in the cotransfection assay was analysed. […] One difference in the latter results, as compared with the results from the cotransfection assay, was that purified tPA generated a second intermediate species of 32 kDa using latent PDGF-CC as the substrate. It is possible that this intermediate is the result of digestion by plasmin contamination in the tPA preparation, since the size of the fragment is similar to that of plasmincleaved PDGF-CC previously reported (Li et al, 2000). […]
# To test the endogenous expression of PDGF-CC, subconfluent AG1523 cells and primary fibroblast cultures were cultured in serum-free DMEM overnight. […] In the case of the primary cultures, total protein concentration was measured and normalized (Bradford, 1976). […]
Molecule,cleavage of the PDGF-CC form by coexpressed tPA [1],effect on release of core PDGF-C by tPA [2]
B1,"neither chimeric PDCUBPC, nor the truncation mutants lacking the CUB domain, were efficiently cleaved",
B2,,had no effect on the release of core PDGF-C by tPA
